We go through 21 sequences from the DeepSol protein solubility set.

The nature of the data set: soluble on expression in E. coli; label from the status in PepcDB or PDB records.
With “GSHMAPDCSQPLDVILLLDGSSSFPASYFDEMKSFAKAFISKANIGPRLTQVSVLQYGSITTIDVPWNVVPEKAHLLSLVDVMQREGGPSQIGDALGFAVRYLTSEMHGARPGASKAVVILVTDVSVDSVDAAADAARSNRVTVFPIGIGDRYDAAQLRILAGPAGDSNVVKLQRIEDLPTMVTLGNSFLHKLCSG”, the “soluble on expression in E. coli” value is on record as “soluble”.
On to “MPTPPAASSLAAQMGESPAPLYARVKHMIALQIQNGTWPPHHRVPSESELVTQLGFSRMTINRALRELTVEGLLVRMQGVGTFVAEPKSQSALFEVHNIADEIAARGHRHTCKVMVLKEEAAGSERALALDMREGQRVFHSLIVHFENDIPVQIEDRFVNAQVAPDYLKQDFTLQTPYAYLSQVAPLTEGEHVVEAILAEADECKLLQIDAGEPCLLIRRRTWSGRQPVTAARLIHPGSRHRLEGRFTK”, for which the “soluble on expression in E. coli” value is given as “not soluble”.
As for “MGSSHHHHHHSSGLVPRGSQSTSLYKKAGLMISAGDFKNGVTFELDGQIFQVIEFQHVKPGKGAAFVRTKLKNIVTGATIEKTFNPTDKMPKAHIERKDMQYLYNDGDLYYFMDTETFEQLPLGKDKIGDALKFVKENEIVKVLSHKGNVFGIEPPNFVELEVTDTEPGFKGDTATGATKPAIVETGASIKVPLFVNKGDIIRIDTRTGEYMERV”, the “soluble on expression in E. coli” value was “soluble”.
For the sequence “MKLRANIIEKRGTLQVIVSYKDSNGKIRQKWKDTKLKKKGNKKRAEKIRDEFLLELESQLAMECECANPDLLFYDYLLNYLEVSKKQVAFNTYVGYKHYVHNRIYKFFYPKKIKLNRLKPYHLQDFYQYMLNDDCTANTVIHYHAFIRKALQEAVITELISTNVADKVRKPKKKQFVSQVYNQHEILKLLDILSEEKLYLVVLLTAFYGLRRSEVLGLKWSAIDFLNKKIMINHVIIENPENMSQLIKKDQTKNSSSYRTLPLVETIERALVNQAKWQQDNRILLGEDYILKDSEYVFTMEDGRLMKPQYVTHRLSKLIKKNGLKKIRFHDLRHSNASIMLDSGQNMKSIQEWLGHASYSTTANLYTHLTAGVKERAAEALENAFGFKE”, the “soluble on expression in E. coli” value is “not soluble”.
The value for “MTHRTKTRPVKVGNLTIGGNNELIIQSMTTTKTHDVEATVAEIKRLEEAGCQVVRVAVPDERAANAIADIKKQINIPLVADIHFDYRLALKAIEGGIDKVRINPGNIGRRHKVEAVVNAAKERGIPIRIGVNAGSLERHILEKYGYPTADGMVESALHHIKILEDLDFHDIIVSMKASDVNLAIEAYEKAARAFDYPLHLGITESGTLFAGTVKSAAGLGAILNKGIGNTLRISLSADPVEEVKVARELLKSFGLASNAATLISCPTCGRIEIDLISIANEVEEYISTLQVPIKVAVLGCAVNGPGEAREADIGIAGARGEGLLFRKGQVVRKVPEEIMVEELKKEIDVIAAEMAAEREKEKETQEQ” was “not soluble”; that for “SLSHGKGTDMLPEIAAAVGFLSSLLRTRGCVSEQRLKVFSGALQEALTEHYKHHWFPEKPSKGSGYRCIRINHKMDPIISRVASQIGLSQPQLHQLLPSELTLWVDPYEVSYRIGEDGSICVLYEEAPLAASCGEG” was “soluble”; that for “MTEDLFGDLQDDTILAHLDNPAEDTSRFPALLAELNDLLRGELSRLGVDPAHSLEIVVAICKHLGGGQVYIPRGQALDSLIRDLRIWNDFNGRNVSELTTRYGVTFNTVYKAIRRMRRLKYRQYQPSLL” was “soluble”.
To “GSSGSSGQFSDMRISINQTPGKSLDFGFTIKWDIPGIFVASVEAGSPAEFSQLQVDDEIIAINNTKFSYNDSKEWEEAMAKAQETGHLVMDVRRYGK” belongs “soluble”; to “MRLTKQTNYAVRMLMYCAANEGKLSRIPEIARAYGVSELFLFKILQPLNKAGLVETVRGRNGGVRLGKPAEKISLFDVVRVTEDSFAMAECFEDGAVECPLVDSCGLNSALRKALNAFFDVLAEYSIDDLVKARPQINFLLGIDTEMPKIAALPAA”, “not soluble”; to “MNNYIDLAKTYGGFTSLDTNYLNHLLASLTDQQKLAFITPPPSVINAYFAEIYQKQSPQAATDYYFNLSKALGLFTDQPSFEEEKPFVRLNLSGKAYGFAYQNDQEVALVFSEKAEPKKPELFFELTQIFPQYMVYEDKGQLKMQAKQFEQGECEDITPDDTLLSKIYRLANGITMLKGFNVEELWALSQTFSGQKYYDFAQREFMIYITQ”, “not soluble”.
To “MPKPVIAIVGRPNVGKSTIFNRIVGERVSIVEDIPGVTRDRIYSAGEWLNHEFNIIDTGGIDIGDEPFLTQIRQQAEVAIDEADVIIFMTNGRDGVTAADEEVAKILYRSNKPVVLAVNKVDNPEMRSDIYDFYALGFGEPFPISGTHGLGLGDLLDEAAQHFPKIEEDGYDEDTIRFSLIGRPNVGKSSLVNALLGQERVIVSNVAGTTRDAVDTPYSKDGKDYVIIDTAGMRKKGKVYESTEKYSVLRALRAIERSDVVLVVLDGEEGIIEQDKKIAGYAHDSGRAVVIVVNKWDAVKKDEKTMKAFEENIRAHFQFLEYAPIVFLSAKTRKRTQTLIPVIDEVNESHSIRIQTNVLNDVIMDAVAMNPTPTHNGSRLKIFYATQVAVKPPTFVVFVNDPELLHFSYERFLKNRLRESFGFVGTPIHIIARARD” belongs “soluble”; to “PVVLESKQRGPCAMSRLIVKNLPNGMKEERFRQLFAAFGTLTDCSLKFTKDGKFRKFGFIGFKSEEEAQKAQKHFNKSFIDTSRITVEFCKSFGDPAKPRAWSKHAQKPSQPKQPPKDSTTPEIKKDEKKKKVAGQLEKLKEDTEFQEFLSVHRRRAQAATWANDGLDAEPSKGKSKPASDYLNFDSDSGQESEEEGAGEDLEEEASLEPKAAVQKELSDMDYLKSKMVKAGSSSSSEEEESEDEAVHCDEGSEAEEEDSSATPVLQERDSRGAGQEQGMPAGKKRPPEARAETEKPANQKEPTTCHTVKLRGAPFNVTEKNVMEFLAPLKPVAIRIVRNAHGNKTGYIFVDFSNEEEVKQALKCNREYMGGRYIEVFREKNVPTTKGAPKNTTKSWQGRILGENEEEEDLAESGRLFVRNLPYTSTEEDLEKLFSKYGPLSELHYPIDSLTKKPKGFAFITFMFPEHAVKAYSEVDGQVFQGRMLHVLPSTIKKEASEDASALGSSSYKKKKEAQDKANSASSHNWNTLFMGPNAVADAIAQKYNATKSQVFDHETKGSVAVRVALGETQLVQEVRRFLIDNGVSLDSFSQAAAERSKTVILVKNLPAGTLAAELQETFGRFGSLGRVLLPEGGTTAIVEFLEPLEARKAFRHLAYSKFHHVPLYLEWAPVGVFSSAAPQKKKLQDTPSEPMEKDPAEPETVPDGETPEDENPTEEGADNSSAKMEEEEEEEEEEEESLPGCTLFIKNLNFDTTEEKLKEVFSKVGTVKSCSISKKKNKAGVLLSMGFGFVEYRKPEQAQKALKQLQGHVVDGHKLEVRISERATKPAVTLARKKQVPRKQTTSKILVRNIPFQAHSREIRELFSTFGELKTVRLPKKMTGTGTHRGFGFVDFLTKQDAKRAFNALCHSTHLYGRRLVLEWADSEVTLQALRRKTAAHFHEPPKKKRSVVLDEILEQLEGSDSDSEEQTLQL”, “soluble”; to “MIDTHIHSDTRGLEDLELMAMCLDGVITLAHDPFEMKNIKVWEAHVEKLLINELERAKKVGLNLFICVGMHPRAIPPEIDEALDKIKSYINYNSRVVGIGEIGLEKATKEEKEVFIKQLLLAEELNMPAVVHTPRRNKEEVTKIILDEISTLNLKNRDIVIEHCNKETTKWVLDEEFYVGLTIQPGKLTPLEAVEIVKEYKDFADKILLNSDCSSNASDVLAVPRTVLKMKINGIEKDVIYKVAHKNAVNLFGLDI”, “not soluble”.
Regarding “MSLTGREKNPSLTAKELEGGLLIVDEMSMVDTWLANTLLKAIPTNMQVIFVGDKDQLPSVGPGQVLHDLLQINEIPKCELNEIYRQGDGSSIIPLAHEIKEGKLPADFQKNQKDRSFFASDIGHIEEYIRQIVTKAKAKGFTPQDIQVLAPMYRGAAGIDALNKMMQEIFNPNDGKKKEVKWNDTVYRIGDKVLQLVNTPELNVFNGDMGEIVGITLAKDSEDKVDELVLQFDNNEVTYKRNEWNKITLSYCCSIHKAQGSEFRMVLLPMVHQYSRMLQRNLLYTAVTRSKELLILLGEVSAFETCVKNESASRMTMLKERIVNAEQEGHHHHHH”, the “soluble on expression in E. coli” value is reported as “not soluble”.
To “MAHHHHHHMRLTASRALLQQAGEMCTALHWMCRIAARVPESGLSGSQLQALLDDEFPSFSPSEVGAVTLKEAVLRFPELLSVEDGSQLQAKWRVRPTHAHKTQEQRASPSSKPTETYTLPMMKLQQFCTKRARMHRNTYMPLEYVLSKADITDVNIVGEVLHNPDAALDVQAGVRIKPKRTPRAVVAFVDGDALPAVAVDEMCNELNVLKESSIVTIVRQPGSHELSAVDIVCPDVIPTYLSIEKHAHELRLRRPNVRHDVVYMCAASQFNIYADRVALLNDFPDADVYVCCPSMIALVKPKKVIPFE” belongs “soluble”; to “MGSDKIHHHHHHMRKIKLIIFPGYYIPHIGGLETHVDEFTKHLSEDENYDIYIFAPNIPKYKEFEIRHNNVKVYRYPAFEIIPNYPVPNIFNIKFWRMFFNLYKIDFDIVMTRTRFFSNTLLGFIFAKLRFKKKKLIHVEHGSAFVKLESEFKNKLSYFYDKTIGKLIFKKADYVVAISKAVKNFILENFVNDKDIPIIYRGLEIEKIESIGEDKKIKEKFKNKIKLCFVGRLYKWKGVENIIKAYVDLPKDLKEKIILIVVGYGEDLERLKKLAGNYLNNGIYFTGKVDFEKAIAIVKASDIYIHSSYKGGGLSSSLLQAMCCGKAIVASPYEGADEVVIDGYNGILLKDNSPEEIKRGIIKLIENNNLRKIYGENAKNFIKENFNWKKSVKEYKKIFERLVN”, “not soluble”.
The value for “MAHHHHHHMRCFRASCCAPSPWQRACSTVASVSDTADLVIVRESPLDNVVLLEMNNGRANVLTPEFISAFLNKLSDLCDPDKSKCSGIILTSKSPGVFSAGLDLNELNTNLSQDRFAQYWSQFQKLFTTLHALPVPLVGAINGHAAAAGCIVALACDYRVMARRHPTKPTHLTIGIAAAKHGFVVPSYVAASMEHVVGFRKAEELLCMGLLLSAGEALKVGLVDEVVEHHDETVVPCLQFMEKLLELPSPAPYWMIKDLSRRHILAPLCTPALRTQDMVSFYNLFSNLQVKKMLAEHAQKFAKK” was “not soluble”.
Take “MGSDKIHHHHHHVNAIQVPDAPVVLSTASVYPEKTPAAFEIAAELGYDGIEVMVTADPVSQDIDMLRRLSEYHQIPITAIHAPCLIFTQRVWGRDPWIKLIKSKEMAEALGATTVVVHPAFKWQREYAREFESGILKMRDETDVIFAVENMYQVRMRGKEVVPYAPSWNPLDRDYPNVTLDLSHTAMSQSDAMDMARQLGDRLSHVHLADGVGGQNFDEHLIPGRGNQPCAELLEHLANNDYRGQIVLEVNTRKSDRETRLTELAEALAFTRLHFARSVPPEPRSEQPEREQIVVRSVPAPALRVFSVHSDGTVSTD”: the “soluble on expression in E. coli” value was “not soluble”.
For the sequence “TNTEQFCTGCHEMRDNVYAELKGTIHYTNRSGVRAICSDCHVPHNWTDKIARKTQASKEVWGKIFGTINTREKFVEKRLELAQHEWARLKANDSLECRNCHNYESMDFTRQSMRAQNMHSTYLADKSKTCIDCHKGIAHTLPRMPPDQTSLAPPAAGPARADTGHAER”, the “soluble on expression in E. coli” value is given as “not soluble”.
To “SASFVGTPLPESENISLYQSRVTVAELEMLASRFVGRTRVKVAFQAYWSQQREELLPNQQAPSSLIRHTERVLAGVFGASSAKLVLTSALQGRNMQLEEVATIVDEAS” belongs “not soluble”.
To “MTLMGFRVKKVRNHVLWDKENDDRNAFTVIIGNNGCGKTELLIDTCNKYHSYYTSALLDKDTHVASAVHYLREDFSPHNWKTVEREYGHRLPRKLIAASTSQFEKFKANWSVRNDLVPSGFYAYIGSKPYMPSLSPSTRIASKAIQQLLGAEYFEERKHKALVGFLSKFDFGQKLLLKFELTFPNEDLENIQNQSLTEPETQLILKNAYIEHDEMELVELLGYCERIIEAPAFALTVGNQNLNLIHLKGSEQKPFSKLIISRMLRAGLITLSSIQTMKDKSLINDQSTVNIESSAISSLSKRSSGEQ” belongs “not soluble”.
